# Laboratory results reported in doi:10.1101/2023.07.31.551325 (bioRxiv, 2023).
# B1: recombinant full-length Plasmodium vivax Sub1 (PvS1FL) (complex)
# chain 1: GDILPNEGKKEKDDVHKIISELRFLQKVETILESSNMSVSDVEADANAYNPDRDAPKEELQKLQDQQETPSKQPNNLRNSPQKRAEKKESPGKNKKSLRLIVSENHATSPSFFEESLLQEDVVSFIQSKGKLSNLKNLKSMIIDLNSDMTDEELAEYISLLERKGALIESDKLVGAD
# chain 2: DVSLASVKDAVRRGESSVNWGKLRSTMLEVPSGESPPSHAASSGSPFDDDDDLLSEAALHREEAHLAGSKTTKGYKFNDEYRNLQWGLDLARLDETQDLINANRVSVTKICVIDSGIDYNHPDLRNNIDVNVKELHGRKGVDDDSNGVVDDVYGANFVNNSGDPMDDNYHGTHVSGIISAVGNNGIGIVGVDGHSKLVICKALDQHKLGRLGDMFKCIDYCISRQAHMINGSFSFDEYSNIFNASVEHLRSLGILFFVSASNCAHDKLSKPDIAKCDLAVNHRYPPILSKTHNNVIAVANLKRDLDESYSLSVNSFYSNIYCQLAAPGTNIYSTTPMNNYRKLNGTSMASPHVAAIASIVRSINPNLTYLQIVEILRNAIVKLPSLTERVSWGGYVDILRAVNLAIDSKAAPYIKSHSWFRWKQGSRR
# Target: the molecule itself
# Assay: AUC
protein,measurement,value
B1,stoichiometry N,2
